In US20170152308A1:
Substitutions are numbered along the chain they refer to.

Tests used:
[1] = target: synthetic peptide of residues 390-414 of TDP-43 with phosphorylation at residues 409/410 (human); experiment: direct ELISA, coated antigen
[2] = target: synthetic peptide of residues 390-414 of TDP-43 with phosphorylation at residues 409/410 (human); experiment: direct ELISA, coated antigen; direct ELISA, coated synthetic phospho-409/410 peptide 390-414 (3.3 ug/ml)

Chain of synthetic peptide of residues 390-414 of TDP-43 with phosphorylation at residues 409/410 (human) (peptide, as listed by the source): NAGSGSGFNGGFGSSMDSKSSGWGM

B1: NI-205.14H5 (antibody, human IgG1, V domains shown)
VH: EVQLLESGGGLVQPGGSLRLSCAASGFTFRNYAMAWVRQAPGKGLEWVSAIPARGDKTYYADSVRGRFTISRDISKSALYLQMNSLRVEDTAVYYCAKAHHLYNKNFDYWGQGTLVTVSS
VL: EIVLTQSPGTLSLSPGETVTLSCRASQSVSSSNLAWYQQKPGQAPRLLIYGASSRATGIPDRFSGRGSGTDFTLTISRLEPEDFAVYYCQHYGTFGQGTKVDIK
For B1, the EC50 [1] was 0.9 nM.

B2: NI-205.21G1 (antibody, human IgG1, V domains shown)
VH: QVQLVESGGGVVQPGMSLRLSCAASGFSFSSHGMHWVRQTPGKGLEWLAVISYDASNKSYADSVKGRFTISRDNSKKTLYLQMDSLRVEDTALYYCANAFSSSASGGYWGQGTLVTVSS
VL: DVVMTQSPLSLPVTLGQPASISCRSSQSLVHSDGVTYLNWFQQRPGQSPRRLIYKVSNRDSGVPDRFSGSGSGTDFTLEISRVEAEDVGIYYCMQGTHWPPWTFGQGTKVEIK
Binder B2 has an EC50 [1] of 49.5 nM.

B3: NI-205.58E11 (antibody, human IgG1, V domains shown)
VH: EVQLLESGGGLVQPGGSLRLSCAASGFTFSSYSMSWVRQAPGKGLEWVATVGYGGTIYYADSVKGRFTISRDNSKNTLYLEMNSLRAEATAVYYCAKANYGGNRFGLDVWGQGTTVTVSS
VL: QSALTQPPSASGSPGQSVTISCTGTSSDVGGYNYVSWYQHQPGKAPKLMIYEVSKRPSGVPDRFSGSKSGNTASLTVSGLQAEDEADYYCSSYAGSNNLGVFGTGTEVTVL
B3 showed an EC50 [1] of 6.9 nM.

B4: NI-205.68G5 (antibody, human IgG1, V domains shown)
VH: QVQLVESGGGVVQPGRSLRLSCAASGFTFSSYGMHWVRQAPGKGLEWVAIIYYDSSQRYYADSVKGRFTISRDNSKNALYLQMNSLRAEDTALYYCARDLPFHYHRSASFAPSDTWGQGTLVTVSS
VL: EIVLTQSPGTLSLSPGERATLSCRASQAVTNNYLAWYQQKPGQAPRLLVYAASSRATGIPDRFYGSGSGADFTLTISRLEPEDFAVYYCQQYGTSPITFGQGTRLEIK
B4 gave an EC50 [1] of 16.9 nM.

B5: NI-205.36D5 (antibody, human IgG1, V domains shown)
VH: B4 VH with G26R, I50L, S55A, S56T, R58K, N84T, E89D, L93V, F102Y, S113A
VL: B4 VL with A28T, V29I, T30S, A85V, T94S
Work on B5 yielded an EC50 [2] of 4.3 nM.

B6: NI-205.8F8 (antibody, human IgG1, V domains shown)
VH: EVQLLESGGGLVQPGGSLRLSCAASGYTFSYYAMSWVRQAPGKGLEWVSTIGDSGSTTHYADSVKGRFTISRDNSKSTLYLQMNSLRAEDTAVYYCAKGLGPVAAIGDYWGQGTLVTVSS
VL: QSVLTQPPSASGTPGQRVTISCSGSSSNIGSNNVYWYQQLPGTAPKLLVYRNNQRPSGVPDRVSGSKSGSSASLAISGLRSEDEADYYCAAWDDSLRGYVFGTGTKVTVL
With B6 the EC50 [1] was 5.1 nM.
